# From the supplement of paper PMC9233669
# Fewer inactive variants are shown than the library holds.
# What was measured:
# biotinyl-Ile-oxazolone = assay: self-aminoacylation, catalytic enhancement (BIO) (fold over background); higher = more active; k-Seq, kA / k0A0; sequences stand for … in GGGAAUGGAUCCACAUCUACGAAUUC…UUCACUGCAGACUUGACGAAGCUG
# In short: (§1)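 Working in 50 μL HEPES/NaCl/KCl/MgCl2/CaCl2 buffer with 5% acetonitrile at pH 6.9–7.0, mutagenized RNA pools (0.43 μM; 21-nt variable region) were reacted with 2–1250 μM of each biotinyl-aminoacyl-oxazolone for 90 minutes at room temperature. Streptavidin capture followed, with quantification by triplicate qPCR and Illumina sequencing. Catalytic enhancement is reported as median kA over the uncatalyzed rate, the low-activity peak of a bimodal Gaussian fit to the data.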
# biotinyl-Leu-oxazolone = assay: self-aminoacylation, catalytic enhancement (BLO) (fold over background); higher = more active; k-Seq, kA / k0A0; sequences stand for … in GGGAAUGGAUCCACAUCUACGAAUUC…UUCACUGCAGACUUGACGAAGCUG
# In short: as §1
# biotinyl-Phe-oxazolone = assay: self-aminoacylation, catalytic enhancement (BFO) (fold over background); higher = more active; k-Seq, kA / k0A0; sequences stand for … in GGGAAUGGAUCCACAUCUACGAAUUC…UUCACUGCAGACUUGACGAAGCUG
# In short: as §1
# biotinyl-Val-oxazolone = assay: self-aminoacylation, catalytic enhancement (BVO) (fold over background); higher = more active; k-Seq, kA / k0A0; sequences stand for … in GGGAAUGGAUCCACAUCUACGAAUUC…UUCACUGCAGACUUGACGAAGCUG
# In short: as §1
# biotinyl-Trp-oxazolone = assay: self-aminoacylation, catalytic enhancement (BWO) (fold over background); higher = more active; k-Seq, kA / k0A0; sequences stand for … in GGGAAUGGAUCCACAUCUACGAAUUC…UUCACUGCAGACUUGACGAAGCUG
# In short: as §1
# biotinyl-Met-oxazolone = assay: self-aminoacylation, catalytic enhancement (BMO) (fold over background); higher = more active; k-Seq, kA / k0A0; sequences stand for … in GGGAAUGGAUCCACAUCUACGAAUUC…UUCACUGCAGACUUGACGAAGCUG
# In short: as §1
Sequence,self-aminoacylation (biotinyl-Ile-oxazolone),self-aminoacylation (biotinyl-Leu-oxazolone),self-aminoacylation (biotinyl-Phe-oxazolone),self-aminoacylation (biotinyl-Val-oxazolone),self-aminoacylation (biotinyl-Trp-oxazolone),self-aminoacylation (biotinyl-Met-oxazolone)
UUUACCCUGGUCAUCGAAUGA [Fam2.1 aminoacylation ribozyme variant],1.31,1.19,1.02,1.05,1.78,1.22
UUUACCCUGGUCAUCGAGUCA [Fam2.1 aminoacylation ribozyme variant],0.707,0.713,1.06,0.738,0.585,0.696
UUUACCCUGGUCAUCUAGUGA [Fam2.1 aminoacylation ribozyme variant],4.72,8.63,46.3,4.43,10.9,8.71
UUUCACAUAGGUCAUCGGGUG [Fam2.2 aminoacylation ribozyme variant],5.3,8.51,56.6,5.12,7.61,7.92
UUUCACCGAGGUCAUCGGGUG [Fam2.2 aminoacylation ribozyme variant],4.52,6.07,44.3,5.17,6.08,7.19
UUUCACCUACGUCAUCGGGUG [Fam2.2 aminoacylation ribozyme variant],2.88,5.75,31.6,3.3,4.58,4.85
UUUCACCUAGAUCAUCGGGUG [Fam2.2 aminoacylation ribozyme variant],2.35,2.82,16.5,2.58,3.04,2.58
UUUCACCUAGCUCAUCGGGUG [Fam2.2 aminoacylation ribozyme variant],2.03,2.24,1.68,2.73,2.5,1.77
UUUCACCUAGGUCACCGGGUG [Fam2.2 aminoacylation ribozyme variant],3.8,5.2,26.7,3.87,5.47,3.77
UUUCACCUAGGUCAUCGGCUG [Fam2.2 aminoacylation ribozyme variant],1.93,1.82,8.98,2.29,2.74,1.89
UUUCACCUAGGUCAUCGGGUU [Fam2.2 aminoacylation ribozyme variant],6.15,12.6,44.3,5.7,7.39,10.4
UUUCACCUAGGUCAUCGUGUG [Fam2.2 aminoacylation ribozyme variant],1.19,1.19,4.69,1.27,1.34,1.43
UUUCACCUAGGUCAUUGGGUG [Fam2.2 aminoacylation ribozyme variant],2.59,2.57,17,2.66,3.77,2.51
UUUCACCUGGGUCAUCGGGUG [Fam2.2 aminoacylation ribozyme variant],3.99,4.95,24.2,5.26,6.75,5.12
UUUCAGCUAGGUCAUCGGGUG [Fam2.2 aminoacylation ribozyme variant],4.98,6.61,39,6.04,7.4,5.9
UUUCCCCUAGGUCAUCGGGUG [Fam2.2 aminoacylation ribozyme variant],6.97,15.1,96.8,6.87,10.4,11.8
UUUUACCUAGGUCAUCGGGUG [Fam2.2 aminoacylation ribozyme variant],6.78,13.5,56.1,6.67,10.4,10.3
UUUUCCCUGGUCAUCGAGUGA [Fam2.1 aminoacylation ribozyme variant],5.39,11.1,16.5,5.81,14.3,11.1
